These results are taken from patent publication US20170021001A1.

The assay addresses TCRs of Du51-specific CD8^+CD45RC^low Tregs (CD8^+CD40Ig Tregs) (rat). Nature of the assay: cell-based or functional assay.

B1: peptide Du51 (…) (peptide)
peptide: NREEYARFDSDVGEYR
B1: the CD25 expression at the cell surface of CD8^+CD40Ig Tregs, fold vs. no peptide (6 days coculture with matured syngeneic pDCs) (fold vs. no peptide) turned out to be 2.07.

B2: peptide Bu31 (…) (peptide)
peptide: YLRYDSDVGEYRAVTE
In the case of B2, the CD25 expression at the cell surface of CD8^+CD40Ig Tregs, fold vs. no peptide (6 days coculture with matured syngeneic pDCs) (fold vs. no peptide) amounted to 1.67.

B3: peptide 51-18 (…) (peptide)
peptide: REEYARFDSDVGEYR
As to B3, the CD25 upregulation on CD8^+CD40Ig Tregs, fold vs. no peptide (fold vs. no peptide) is 2.04.
